1 substance from PMC2888057 can be followed below.

This experiment concerns the target KCNQ1 H363C in the cysteine-less background (human) (UniProt P51787).

Regarding “KCNE1 D76C in the cysteine-less, HA-tagged background (from UniProt P15382 1-129) (natural protein)”, the time constant of oxidant (0.1% H2O2)-induced current reduction, H363C with D76C turned out to be 50 s.
